Results: patent US20230183381A1 (VIRTUOSO BINCO, published 2023)

biological target: T1, human CD38 extracellular domain (hCD38, recombinant, with AviTag) (human, UniProt P28907 43-300); test: ELISA on human CD38 ECD, EC50 class
T1 construct: also called recombinant CD38; huCD38

EC50 [nM] | Binder
> 0.5 | Anti-CD38 LC_G94A (antibody, V domains shown, Alanine variant of h18E4-19 with the parent VH; also called Anti-CD38low) VH: EVQLLESGGGLVQPGGSLRLSCAASGFSFNNYWIIWIRQAPGKGLEWVAAIYSPSGDIKYYADWAKGRFTVSKDNSKNTVYLQMNSLRAEDTAVYYCARELSGSSYEGYFESWGQGTLVTVSS VL: DIQLTQSPSTLSASVGDRVTITCRSSQSVYGHNWLAWYQQKPGKAPKLLMYRASNLASGVPSRFSGSGSGTEFTLTISSVQPDDFATYYCQGYYSAGSYAFGGGTKVEIK
0.1 to 0.5 | Anti-CD38 LC_G90A (antibody, V domains shown, Alanine variant of h18E4-19 with the parent VH) VH: EVQLLESGGGLVQPGGSLRLSCAASGFSFNNYWIIWIRQAPGKGLEWVAAIYSPSGDIKYYADWAKGRFTVSKDNSKNTVYLQMNSLRAEDTAVYYCARELSGSSYEGYFESWGQGTLVTVSS VL: DIQLTQSPSTLSASVGDRVTITCRSSQSVYGHNWLAWYQQKPGKAPKLLMYRASNLASGVPSRFSGSGSGTEFTLTISSVQPDDFATYYCQAYYSGGSYAFGGGTKVEIK
0.02 to 0.1 | Anti-CD38 LC_S95aA (antibody, V domains shown, Alanine variant of h18E4-19 with the parent VH) VH: EVQLLESGGGLVQPGGSLRLSCAASGFSFNNYWIIWIRQAPGKGLEWVAAIYSPSGDIKYYADWAKGRFTVSKDNSKNTVYLQMNSLRAEDTAVYYCARELSGSSYEGYFESWGQGTLVTVSS VL: DIQLTQSPSTLSASVGDRVTITCRSSQSVYGHNWLAWYQQKPGKAPKLLMYRASNLASGVPSRFSGSGSGTEFTLTISSVQPDDFATYYCQGYYSGGAYAFGGGTKVEIK
0.1 to 0.5 | Anti-CD38 LC_S93A (antibody, V domains shown, Alanine variant of h18E4-19 with the parent VH) VH: EVQLLESGGGLVQPGGSLRLSCAASGFSFNNYWIIWIRQAPGKGLEWVAAIYSPSGDIKYYADWAKGRFTVSKDNSKNTVYLQMNSLRAEDTAVYYCARELSGSSYEGYFESWGQGTLVTVSS VL: DIQLTQSPSTLSASVGDRVTITCRSSQSVYGHNWLAWYQQKPGKAPKLLMYRASNLASGVPSRFSGSGSGTEFTLTISSVQPDDFATYYCQGYYAGGSYAFGGGTKVEIK
0.02 to 0.1 | Anti-CD38 LC_Q89A (antibody, V domains shown, Alanine variant of h18E4-19 with the parent VH; also called Anti-CD38med) VH: EVQLLESGGGLVQPGGSLRLSCAASGFSFNNYWIIWIRQAPGKGLEWVAAIYSPSGDIKYYADWAKGRFTVSKDNSKNTVYLQMNSLRAEDTAVYYCARELSGSSYEGYFESWGQGTLVTVSS VL: DIQLTQSPSTLSASVGDRVTITCRSSQSVYGHNWLAWYQQKPGKAPKLLMYRASNLASGVPSRFSGSGSGTEFTLTISSVQPDDFATYYCAGYYSGGSYAFGGGTKVEIK
0.02 to 0.1 | Anti-CD38 LC_G95A (antibody, V domains shown, Alanine variant of h18E4-19 with the parent VH) VH: EVQLLESGGGLVQPGGSLRLSCAASGFSFNNYWIIWIRQAPGKGLEWVAAIYSPSGDIKYYADWAKGRFTVSKDNSKNTVYLQMNSLRAEDTAVYYCARELSGSSYEGYFESWGQGTLVTVSS VL: DIQLTQSPSTLSASVGDRVTITCRSSQSVYGHNWLAWYQQKPGKAPKLLMYRASNLASGVPSRFSGSGSGTEFTLTISSVQPDDFATYYCQGYYSGASYAFGGGTKVEIK
> 0.5 | Anti-CD38 LC_Y91A (antibody, V domains shown, Alanine variant of h18E4-19 with the parent VH) VH: EVQLLESGGGLVQPGGSLRLSCAASGFSFNNYWIIWIRQAPGKGLEWVAAIYSPSGDIKYYADWAKGRFTVSKDNSKNTVYLQMNSLRAEDTAVYYCARELSGSSYEGYFESWGQGTLVTVSS VL: DIQLTQSPSTLSASVGDRVTITCRSSQSVYGHNWLAWYQQKPGKAPKLLMYRASNLASGVPSRFSGSGSGTEFTLTISSVQPDDFATYYCQGAYSGGSYAFGGGTKVEIK

Continued, binder first:

Binder | EC50 [nM]
humanized h18E4-19 antibody (antibody, V domains shown, the control is hIgG1; also called hu18E4-19; Anti-CD38) VH: EVQLLESGGGLVQPGGSLRLSCAASGFSFNNYWIIWIRQAPGKGLEWVAAIYSPSGDIKYYADWAKGRFTVSKDNSKNTVYLQMNSLRAEDTAVYYCARELSGSSYEGYFESWGQGTLVTVSS VL: DIQLTQSPSTLSASVGDRVTITCRSSQSVYGHNWLAWYQQKPGKAPKLLMYRASNLASGVPSRFSGSGSGTEFTLTISSVQPDDFATYYCQGYYSGGSYAFGGGTKVEIK | 0.02 to 0.1
Anti-CD38 HC_F100eA (antibody, V domains shown, Alanine variant of h18E4-19 with the parent VL) VH: EVQLLESGGGLVQPGGSLRLSCAASGFSFNNYWIIWIRQAPGKGLEWVAAIYSPSGDIKYYADWAKGRFTVSKDNSKNTVYLQMNSLRAEDTAVYYCARELSGSSYEGYAESWGQGTLVTVSS VL: DIQLTQSPSTLSASVGDRVTITCRSSQSVYGHNWLAWYQQKPGKAPKLLMYRASNLASGVPSRFSGSGSGTEFTLTISSVQPDDFATYYCQGYYSGGSYAFGGGTKVEIK | 0.02 to 0.1
Anti-CD38 HC_L96A (antibody, V domains shown, Alanine variant of h18E4-19 with the parent VL) VH: EVQLLESGGGLVQPGGSLRLSCAASGFSFNNYWIIWIRQAPGKGLEWVAAIYSPSGDIKYYADWAKGRFTVSKDNSKNTVYLQMNSLRAEDTAVYYCAREASGSSYEGYFESWGQGTLVTVSS VL: DIQLTQSPSTLSASVGDRVTITCRSSQSVYGHNWLAWYQQKPGKAPKLLMYRASNLASGVPSRFSGSGSGTEFTLTISSVQPDDFATYYCQGYYSGGSYAFGGGTKVEIK | 0.02 to 0.1
Anti-CD38 HC_S100A (antibody, V domains shown, Alanine variant of h18E4-19 with the parent VL) VH: EVQLLESGGGLVQPGGSLRLSCAASGFSFNNYWIIWIRQAPGKGLEWVAAIYSPSGDIKYYADWAKGRFTVSKDNSKNTVYLQMNSLRAEDTAVYYCARELSGSAYEGYFESWGQGTLVTVSS VL: DIQLTQSPSTLSASVGDRVTITCRSSQSVYGHNWLAWYQQKPGKAPKLLMYRASNLASGVPSRFSGSGSGTEFTLTISSVQPDDFATYYCQGYYSGGSYAFGGGTKVEIK | 0.02 to 0.1
Anti-CD38 HC_Y100aA (antibody, V domains shown, Alanine variant of h18E4-19 with the parent VL) VH: EVQLLESGGGLVQPGGSLRLSCAASGFSFNNYWIIWIRQAPGKGLEWVAAIYSPSGDIKYYADWAKGRFTVSKDNSKNTVYLQMNSLRAEDTAVYYCARELSGSSAEGYFESWGQGTLVTVSS VL: DIQLTQSPSTLSASVGDRVTITCRSSQSVYGHNWLAWYQQKPGKAPKLLMYRASNLASGVPSRFSGSGSGTEFTLTISSVQPDDFATYYCQGYYSGGSYAFGGGTKVEIK | 0.02 to 0.1
Anti-CD38 HC_E100bA (antibody, V domains shown, Alanine variant of h18E4-19 with the parent VL) VH: EVQLLESGGGLVQPGGSLRLSCAASGFSFNNYWIIWIRQAPGKGLEWVAAIYSPSGDIKYYADWAKGRFTVSKDNSKNTVYLQMNSLRAEDTAVYYCARELSGSSYAGYFESWGQGTLVTVSS VL: DIQLTQSPSTLSASVGDRVTITCRSSQSVYGHNWLAWYQQKPGKAPKLLMYRASNLASGVPSRFSGSGSGTEFTLTISSVQPDDFATYYCQGYYSGGSYAFGGGTKVEIK | > 0.5
Anti-CD38 HC_G100cA (antibody, V domains shown, Alanine variant of h18E4-19 with the parent VL) VH: EVQLLESGGGLVQPGGSLRLSCAASGFSFNNYWIIWIRQAPGKGLEWVAAIYSPSGDIKYYADWAKGRFTVSKDNSKNTVYLQMNSLRAEDTAVYYCARELSGSSYEAYFESWGQGTLVTVSS VL: DIQLTQSPSTLSASVGDRVTITCRSSQSVYGHNWLAWYQQKPGKAPKLLMYRASNLASGVPSRFSGSGSGTEFTLTISSVQPDDFATYYCQGYYSGGSYAFGGGTKVEIK | 0.1 to 0.5
Anti-CD38 HC_E101A (antibody, V domains shown, Alanine variant of h18E4-19 with the parent VL) VH: EVQLLESGGGLVQPGGSLRLSCAASGFSFNNYWIIWIRQAPGKGLEWVAAIYSPSGDIKYYADWAKGRFTVSKDNSKNTVYLQMNSLRAEDTAVYYCARELSGSSYEGYFASWGQGTLVTVSS VL: DIQLTQSPSTLSASVGDRVTITCRSSQSVYGHNWLAWYQQKPGKAPKLLMYRASNLASGVPSRFSGSGSGTEFTLTISSVQPDDFATYYCQGYYSGGSYAFGGGTKVEIK | 0.02 to 0.1
Anti-CD38 HC_S102A (antibody, V domains shown, Alanine variant of h18E4-19 with the parent VL) VH: EVQLLESGGGLVQPGGSLRLSCAASGFSFNNYWIIWIRQAPGKGLEWVAAIYSPSGDIKYYADWAKGRFTVSKDNSKNTVYLQMNSLRAEDTAVYYCARELSGSSYEGYFEAWGQGTLVTVSS VL: DIQLTQSPSTLSASVGDRVTITCRSSQSVYGHNWLAWYQQKPGKAPKLLMYRASNLASGVPSRFSGSGSGTEFTLTISSVQPDDFATYYCQGYYSGGSYAFGGGTKVEIK | 0.02 to 0.1
Anti-CD38 HC_S97A (antibody, V domains shown, Alanine variant of h18E4-19 with the parent VL) VH: EVQLLESGGGLVQPGGSLRLSCAASGFSFNNYWIIWIRQAPGKGLEWVAAIYSPSGDIKYYADWAKGRFTVSKDNSKNTVYLQMNSLRAEDTAVYYCARELAGSSYEGYFESWGQGTLVTVSS VL: DIQLTQSPSTLSASVGDRVTITCRSSQSVYGHNWLAWYQQKPGKAPKLLMYRASNLASGVPSRFSGSGSGTEFTLTISSVQPDDFATYYCQGYYSGGSYAFGGGTKVEIK | 0.02 to 0.1
Anti-CD38 HC_E95A (antibody, V domains shown, Alanine variant of h18E4-19 with the parent VL) VH: EVQLLESGGGLVQPGGSLRLSCAASGFSFNNYWIIWIRQAPGKGLEWVAAIYSPSGDIKYYADWAKGRFTVSKDNSKNTVYLQMNSLRAEDTAVYYCARALSGSSYEGYFESWGQGTLVTVSS VL: DIQLTQSPSTLSASVGDRVTITCRSSQSVYGHNWLAWYQQKPGKAPKLLMYRASNLASGVPSRFSGSGSGTEFTLTISSVQPDDFATYYCQGYYSGGSYAFGGGTKVEIK | > 0.5
Anti-CD38 HC_G98A (antibody, V domains shown, Alanine variant of h18E4-19 with the parent VL) VH: EVQLLESGGGLVQPGGSLRLSCAASGFSFNNYWIIWIRQAPGKGLEWVAAIYSPSGDIKYYADWAKGRFTVSKDNSKNTVYLQMNSLRAEDTAVYYCARELSASSYEGYFESWGQGTLVTVSS VL: DIQLTQSPSTLSASVGDRVTITCRSSQSVYGHNWLAWYQQKPGKAPKLLMYRASNLASGVPSRFSGSGSGTEFTLTISSVQPDDFATYYCQGYYSGGSYAFGGGTKVEIK | 0.02 to 0.1
Anti-CD38 HC_Y100dA (antibody, V domains shown, Alanine variant of h18E4-19 with the parent VL) VH: EVQLLESGGGLVQPGGSLRLSCAASGFSFNNYWIIWIRQAPGKGLEWVAAIYSPSGDIKYYADWAKGRFTVSKDNSKNTVYLQMNSLRAEDTAVYYCARELSGSSYEGAFESWGQGTLVTVSS VL: DIQLTQSPSTLSASVGDRVTITCRSSQSVYGHNWLAWYQQKPGKAPKLLMYRASNLASGVPSRFSGSGSGTEFTLTISSVQPDDFATYYCQGYYSGGSYAFGGGTKVEIK | > 0.5
Anti-CD38 HC_S99A (antibody, V domains shown, Alanine variant of h18E4-19 with the parent VL) VH: EVQLLESGGGLVQPGGSLRLSCAASGFSFNNYWIIWIRQAPGKGLEWVAAIYSPSGDIKYYADWAKGRFTVSKDNSKNTVYLQMNSLRAEDTAVYYCARELSGASYEGYFESWGQGTLVTVSS VL: DIQLTQSPSTLSASVGDRVTITCRSSQSVYGHNWLAWYQQKPGKAPKLLMYRASNLASGVPSRFSGSGSGTEFTLTISSVQPDDFATYYCQGYYSGGSYAFGGGTKVEIK | 0.02 to 0.1
